Values belong to the molecule of their own block, whether it stands above or below them.
Tests used:
[1] = target: apo-transferrin (iron-free serotransferrin) (UniProt P02787); experiment: SPR; conditions: 150 mM NaCl, pH 7.4: 20 mM HEPES, pH 6.0: 20 mM PIPES
[2] = target: the molecule itself

Sequence of apo-transferrin (iron-free serotransferrin) (P02787 whole entry): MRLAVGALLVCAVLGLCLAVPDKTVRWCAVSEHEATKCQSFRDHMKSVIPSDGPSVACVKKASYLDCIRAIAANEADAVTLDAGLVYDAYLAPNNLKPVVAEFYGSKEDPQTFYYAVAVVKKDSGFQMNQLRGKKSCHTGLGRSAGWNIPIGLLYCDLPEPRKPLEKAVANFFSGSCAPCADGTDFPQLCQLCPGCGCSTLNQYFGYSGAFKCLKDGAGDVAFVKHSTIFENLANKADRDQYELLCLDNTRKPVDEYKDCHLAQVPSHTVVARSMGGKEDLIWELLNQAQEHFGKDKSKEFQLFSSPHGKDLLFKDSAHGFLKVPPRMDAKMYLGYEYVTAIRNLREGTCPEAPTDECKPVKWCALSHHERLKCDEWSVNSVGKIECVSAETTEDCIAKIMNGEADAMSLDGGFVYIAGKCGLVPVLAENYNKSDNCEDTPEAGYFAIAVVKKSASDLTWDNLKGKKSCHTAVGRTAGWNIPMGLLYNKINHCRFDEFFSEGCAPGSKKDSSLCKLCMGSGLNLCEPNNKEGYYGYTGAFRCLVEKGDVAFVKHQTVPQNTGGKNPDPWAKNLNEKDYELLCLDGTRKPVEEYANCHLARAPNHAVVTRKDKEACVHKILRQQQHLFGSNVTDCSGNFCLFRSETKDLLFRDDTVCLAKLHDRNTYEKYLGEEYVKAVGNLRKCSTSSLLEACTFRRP

Molecule: EGFP-TfR2-TfR1HD (TfR2 chimera carrying the TfR1 helical domain) helical domain swap: TfR2 637-801 replaced by TfR1 605-760
ka1 ([1]; pH 6.0): 160000 M⁻¹ s⁻¹
ka2 ([1]; pH 6.0): 1.03e+06 M⁻¹ s⁻¹
kd1 ([1]; pH 6.0): 350 s⁻¹
kd2 ([1]; pH 6.0): 4950 s⁻¹
ka1 ([1]; pH 7.4): 510000 M⁻¹ s⁻¹
ka2 ([1]; pH 7.4): 163000 M⁻¹ s⁻¹
kd1 ([1]; pH 7.4): 2500 s⁻¹
kd2 ([1]; pH 7.4): 78300 s⁻¹

B1: full-length EGFP-TfR2 (transferrin receptor-2) (receptor, human, UniProt Q9UP52 1-801, looked up)
chain: MERLWGLFQRAQQLSPRSSQTVYQRVEGPRKGHLEEEEEDGEEGAETLAHFCPMELRGPEPLGSRPRQPNLIPWAAAGRRAAPYLVLTALLIFTGAFLLGYVAFRGSCQACGDSVLVVSEDVNYEPDLDFHQGRLYWSDLQAMFLQFLGEGRLEDTIRQTSLRERVAGSAGMAALTQDIRAALSRQKLDHVWTDTHYVGLQFPDPAHPNTLHWVDEAGKVGEQLPLEDPDVYCPYSAIGNVTGELVYAHYGRPEDLQDLRARGVDPVGRLLLVRVGVISFAQKVTNAQDFGAQGVLIYPEPADFSQDPPKPSLSSQQAVYGHVHLGTGDPYTPGFPSFNQTQFPPVASSGLPSIPAQPISADIASRLLRKLKGPVAPQEWQGSLLGSPYHLGPGPRLRLVVNNHRTSTPINNIFGCIEGRSEPDHYVVIGAQRDAWGPGAAKSAVGTAILLELVRTFSSMVSNGFRPRRSLLFISWDGGDFGSVGSTEWLEGYLSVLHLKAVVYVSLDNAVLGDDKFHAKTSPLLTSLIESVLKQVDSPNHSGQTLYEQVVFTNPSWDAEVIRPLPMDSSAYSFTAFVGVPAVEFSFMEDDQAYPFLHTKEDTYENLHKVLQGRLPAVAQAVAQLAGQLLIRLSHDRLLPLDFGRYGDVVLRHIGNLNEFSGDLKARGLTLQWVYSARGDYIRAAEKLRQEIYSSEERDERLTRMYNVRIMRVEFYFLSQYVSPADSPFRHIFMGRGDHTLGALLDHLRLLRSNSSGTPGATSSTGFQESRFRRQLALLTWTLQGAANALSGDVWNIDNNF
stoichiometry N [2]: 2

Further lines, results first:

ka1 ([1]; pH 6.0): 1.01e+06 M⁻¹ s⁻¹
ka2 ([1]; pH 6.0): 3.01e+06 M⁻¹ s⁻¹
kd1 ([1]; pH 6.0): 1.2 s⁻¹
ka1 ([1]; pH 7.4): 450000 M⁻¹ s⁻¹
ka2 ([1]; pH 7.4): 19000 M⁻¹ s⁻¹
kd1 ([1]; pH 7.4): 22000 s⁻¹
Molecule: EGFP-TfR1 (full-length transferrin receptor 1, EGFP fusion)

ka1 ([1]; pH 6.0): 150000 M⁻¹ s⁻¹
ka2 ([1]; pH 6.0): 34000 M⁻¹ s⁻¹
kd1 ([1]; pH 6.0): 1100 s⁻¹
kd2 ([1]; pH 6.0): 643 s⁻¹
ka1 ([1]; pH 7.4): 66000 M⁻¹ s⁻¹
ka2 ([1]; pH 7.4): 6300 M⁻¹ s⁻¹
kd1 ([1]; pH 7.4): 44000 s⁻¹
kd2 ([1]; pH 7.4): 8160 s⁻¹
Molecule: EGFP-TfR2 (full-length transferrin receptor 2, EGFP fusion)

From PMC6038944 (Biochemistry, 2018)
